This note sets out measurements from article PMC2693429.

The target in assay [1] is 6 × His-tagged PAI-2 lacking the intrahelical loop between C and D alpha-helices (PAI-2 ΔCD-loop), from pQE9 (human) (UniProt P05120). Description: native MS; positive ion ESI-MS (Q-TOF); 10 μM protein in 10 mM ammonium acetate pH 6.8 with 0.1% formic acid; monomeric and dimeric species seen.
For assay [2], the target named is Recombinant Very Low Density Lipoprotein Receptor (VLDLR) ligand binding region. Nature of the assay: SPR; VLDLR immobilised on a CM5 BIAcore chip (~2,000 response units, amine coupling); analytes in 10 mM Hepes pH 7.4, 150 mM NaCl, 1 mM CaCl2, 0.005% Tween-20 at 20 μL/min; regeneration 100 mM H3PO4; blank cell as reference; 1:1 binding model.

Broadly, the stoichiometry N is the number of molecules, sites or subunits per partner or assembly. “6 × His-tagged PAI-2 lacking the intrahelical loop between C and D alpha-helices (PAI-2 ΔCD-loop), from pQE9 (from UniProt P05120 1-415) (natural protein)” gave a stoichiometry N in assay [1] of 2.

Usually Kd stands for a measure of binding affinity in units of concentration. The term koff denotes the rate constant with which the complex falls apart. By kon is commonly meant the second-order rate constant of association. Turning to “uPA:PAI-2 wild-type complex (from UniProt P05120 1-415)”, in assay [2], the Kd is 4.81 nM, the koff came to 0.00144 s⁻¹ and the on-rate (kon) amounted to 375000 M⁻¹ s⁻¹.

In the case of “uPA:PAI-2 ΔCD-loop complex (from UniProt P05120 1-415)”, in assay [2], the dissociation constant (Kd) stood at 4.34 nM, the koff is 0.00136 s⁻¹ and the on-rate (kon) was 416000 M⁻¹ s⁻¹.
